The values below come from publication PMC7744049.

The target in the experiment is SARS-CoV RBD (residues 306-527 of the spike protein) (SARS-CoV) (UniProt P59594).

Turning to CR3022 IgG (antibody), the pseudovirus neutralization assay (SARS-CoV spike on pseudovirus), IC50 was found to be 5.2 µg/mL.
